Measured values reported in paper PMC5354511, “Autophosphorylation-based Calcium (Ca^2+) Sensitivity Priming and Ca^2+/Calmodulin Inhibition of Arabidopsis thaliana Ca^2+-dependent Protein Kinase 28 (CPK28)*^([image sbox.jpg])^♦” (The Journal of Biological Chemistry, 2017).

Biological target: T1, recombinant CaM6 (untagged) (UniProt Q03509 1-149)
T1 construct: calmodulin 6 (CaM6), 'a conserved CaM isoform'; recombinant, untagged; also called Ca2+/CaM; source: E. coli NiCO (DE3), purified (heat step, phenyl-Sepharose)
Assay: native gel or EMSA; CaM (240 pmol) with different amounts of LL22 or pLL22 peptide in the ratios indicated, 20 μl, 60 min, then native PAGE
Conditions: both partners purified

stoichiometry N: 1
B1: LL22 peptide (CPK28 autoinhibitory junction) (peptide)
peptide: LRQFVRYSRLKQFALRALASTL
notes: source: synthetic peptide (LifeTein)
